Data from US20250145711A1 (Janssen / Centocor, published 2025).
Where a chain is given by its changes, count along the chain named. Names and notes keep the numbering of the source.

B1: BC3B51 (bispecific antibody, human IgG1, kappa, L234A L235A)
chain: QVQLVQSGAEVKKPGSSVKVSCKASGYTFTRSTMHWVKQAPGQGLEWIGYINPSSAYTNYNQKFQGRVTLTADKSTSTAYMELSSLRSEDTAVYYCASPQVHYDYQGFPYWGQGTLVTVSSGGSEGKSSGSGSESKSTGGSEIVLTQSPATLSASPGERVTLSCSASSSVSYMNWYQQKPGQAPRRWIYDSSKLASGVPARFSGSGSGRDYTLTISSLEPEDFAVYYCQQWSRNPPTFGGGTKVEIKEPKSSDKTHTCPPCPAPEAAGGPSVFLFPPKPKDTLMISRTPEVTCVVVSVSHEDPEVKFNWYVDGVEVHNAKTKPREEQYNSTYRVVSVLTVLHQDWLNGKEYKCKVSNKALPAPIEKTISKAKGQPREPQVYVYPPSREEMTKNQVSLTCLVKGFYPSDIAVEWESNGQPENNYKTTPPVLDSDGSFALVSKLTVDKSRWQQGNVFSCSVMHEALHNHYTQKSLSLSPG
heavy: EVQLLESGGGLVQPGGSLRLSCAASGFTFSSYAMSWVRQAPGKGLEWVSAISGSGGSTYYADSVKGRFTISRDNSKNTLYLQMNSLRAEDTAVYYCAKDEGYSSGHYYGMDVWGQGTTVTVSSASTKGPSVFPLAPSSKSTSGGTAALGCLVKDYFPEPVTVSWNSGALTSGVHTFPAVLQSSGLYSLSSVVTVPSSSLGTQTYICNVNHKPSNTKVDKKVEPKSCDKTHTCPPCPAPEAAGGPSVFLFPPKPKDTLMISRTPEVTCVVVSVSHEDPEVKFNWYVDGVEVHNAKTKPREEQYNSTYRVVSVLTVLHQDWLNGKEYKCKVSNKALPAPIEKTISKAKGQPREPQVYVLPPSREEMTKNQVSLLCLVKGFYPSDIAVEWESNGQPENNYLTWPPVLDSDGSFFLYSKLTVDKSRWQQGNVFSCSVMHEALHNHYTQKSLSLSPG
light: EIVLTQSPGTLSLSPGERATLSCRASQSISSSFLTWYQQKPGQAPRLLIYGASSRATGIPDRFSGGGSGTDFTLTISRLEPEDFAVYYCQHYGSSPMYTFGQGTKLEIKRTVAAPSVFIFPPSDEQLKSGTASVVCLLNNFYPREAKVQWKVDNALQSGNSQESVTEQDSKDSTYSLSSTLTLSKADYEKHKVYACEVTHQGLSSPVTKSFNRGEC
notes: IgG1 BCMAxCD3; HC1: CD3B2030-N106Q HL scFv-Fc; also called BC3B51.001; B2030 HL NtoQ
B2: BC3B115 (bispecific antibody, human IgG1, kappa, L234A L235A)
chain: B1 chain with K38R, I48M, N61A, Q106S
heavy: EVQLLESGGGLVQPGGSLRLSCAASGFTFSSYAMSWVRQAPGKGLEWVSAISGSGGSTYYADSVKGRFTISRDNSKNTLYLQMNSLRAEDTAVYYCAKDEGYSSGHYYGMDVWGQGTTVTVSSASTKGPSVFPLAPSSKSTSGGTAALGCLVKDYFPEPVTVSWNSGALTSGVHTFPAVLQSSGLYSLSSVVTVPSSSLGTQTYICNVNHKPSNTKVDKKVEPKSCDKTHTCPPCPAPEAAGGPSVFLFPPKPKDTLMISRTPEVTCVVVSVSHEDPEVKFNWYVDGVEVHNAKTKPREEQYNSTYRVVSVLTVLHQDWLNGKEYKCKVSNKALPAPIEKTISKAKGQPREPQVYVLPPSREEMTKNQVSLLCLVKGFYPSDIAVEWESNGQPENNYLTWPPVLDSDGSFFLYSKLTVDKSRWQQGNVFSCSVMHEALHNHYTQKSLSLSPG
light: B1 light
notes: IgG1 BCMAxCD3; HC1: CD3B2089-N106S HL scFv-Fc; also called BC3B115.001; B2089 HL NtoS
B3: BC3B110 (bispecific antibody, human IgG1, kappa, L234A L235A)
chain: B1 chain with I48M, Q106S, W187L
heavy: not shown
light: B1 light
notes: IgG1 BCMAxCD3; HC1: CD3B2051-N106S HL scFv-Fc; also called BC3B110.001; B2051 HL NtoS
B4: BC3B128 (bispecific antibody, human IgG1, kappa, L234A L235A)
chain: EIVLTQSPATLSASPGERVTLSCSASSSVSYMNWYQQKPGQAPRRWIYDSSKLASGVPARFSGSGSGRDYTLTISSLEPEDFAVYYCQQWSRNPPTFGGGTKVEIKGGSEGKSSGSGSESKSTGGSQVQLVQSGAEVKKPGSSVKVSCKASGYTFTRSTMHWVRQAPGQGLEWMGYINPSSAYTNYAQKFQGRVTLTADKSTSTAYMELSSLRSEDTAVYYCASPQVHYDYQGFPYWGQGTLVTVSSEPKSSDKTHTCPPCPAPEAAGGPSVFLFPPKPKDTLMISRTPEVTCVVVSVSHEDPEVKFNWYVDGVEVHNAKTKPREEQYNSTYRVVSVLTVLHQDWLNGKEYKCKVSNKALPAPIEKTISKAKGQPREPQVYVYPPSREEMTKNQVSLTCLVKGFYPSDIAVEWESNGQPENNYKTTPPVLDSDGSFALVSKLTVDKSRWQQGNVFSCSVMHEALHNHYTQKSLSLSPG
heavy: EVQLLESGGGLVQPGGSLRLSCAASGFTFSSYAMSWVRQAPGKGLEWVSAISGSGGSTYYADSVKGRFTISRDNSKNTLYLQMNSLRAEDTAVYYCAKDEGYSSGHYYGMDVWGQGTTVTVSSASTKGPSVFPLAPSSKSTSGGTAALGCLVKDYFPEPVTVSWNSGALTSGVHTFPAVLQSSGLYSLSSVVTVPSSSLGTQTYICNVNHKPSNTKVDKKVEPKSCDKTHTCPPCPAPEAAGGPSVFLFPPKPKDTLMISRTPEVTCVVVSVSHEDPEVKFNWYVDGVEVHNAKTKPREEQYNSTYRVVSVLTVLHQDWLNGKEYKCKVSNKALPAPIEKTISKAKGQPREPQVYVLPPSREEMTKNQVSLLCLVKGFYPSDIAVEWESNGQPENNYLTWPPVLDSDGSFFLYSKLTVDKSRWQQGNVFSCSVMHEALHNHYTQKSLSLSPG
light: B1 light
notes: IgG1 BCMAxCD3; HC1: CD3B2089-N106Q LH scFv-Fc; also called BC3B128.001; B2089 LH NtoQ
B5: BC3B103 (bispecific antibody, human IgG1, kappa, L234A L235A)
chain: B1 chain with Q106A
heavy: not shown
light: B1 light
notes: IgG1 BCMAxCD3; HC1: CD3B2030-N106A HL scFv-Fc; also called BC3B103.001; B2030 HL NtoA
B6: BC3B114 (bispecific antibody, human IgG1, kappa, L234A L235A)
chain: B1 chain with K38R, I48M, N61A
heavy: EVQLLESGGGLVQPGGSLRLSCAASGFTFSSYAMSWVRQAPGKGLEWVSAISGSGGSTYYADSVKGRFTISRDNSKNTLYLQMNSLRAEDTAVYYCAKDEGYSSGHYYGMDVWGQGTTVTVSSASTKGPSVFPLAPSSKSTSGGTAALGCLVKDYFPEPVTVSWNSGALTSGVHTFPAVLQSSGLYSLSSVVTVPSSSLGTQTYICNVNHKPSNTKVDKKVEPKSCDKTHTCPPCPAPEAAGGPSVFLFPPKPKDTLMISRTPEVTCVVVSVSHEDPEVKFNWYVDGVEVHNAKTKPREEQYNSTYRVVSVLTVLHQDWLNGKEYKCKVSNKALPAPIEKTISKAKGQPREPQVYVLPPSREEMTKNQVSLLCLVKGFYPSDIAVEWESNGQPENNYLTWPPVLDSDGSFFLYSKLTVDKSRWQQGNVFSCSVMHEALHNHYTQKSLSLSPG
light: B1 light
notes: IgG1 BCMAxCD3; HC1: CD3B2089-N106Q HL scFv-Fc; also called BC3B114.001; B2089 HL NtoQ
B7: BC3B122 (bispecific antibody, human IgG1, kappa, L234A L235A)
chain: B4 chain with W46L, R164K, A187N, Q232G
heavy: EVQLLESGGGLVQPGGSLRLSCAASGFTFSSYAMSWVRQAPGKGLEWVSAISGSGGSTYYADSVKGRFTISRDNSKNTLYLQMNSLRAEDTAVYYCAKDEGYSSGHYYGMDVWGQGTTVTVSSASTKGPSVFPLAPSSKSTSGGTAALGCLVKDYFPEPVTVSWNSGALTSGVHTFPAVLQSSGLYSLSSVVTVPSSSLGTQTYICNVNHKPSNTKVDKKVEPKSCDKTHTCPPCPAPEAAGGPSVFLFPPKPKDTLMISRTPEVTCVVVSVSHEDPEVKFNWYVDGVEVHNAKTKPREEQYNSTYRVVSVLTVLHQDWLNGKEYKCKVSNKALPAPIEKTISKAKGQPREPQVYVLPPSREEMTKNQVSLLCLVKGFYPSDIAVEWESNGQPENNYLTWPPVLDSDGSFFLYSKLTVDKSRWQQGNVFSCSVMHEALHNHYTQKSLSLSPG
light: B1 light
notes: IgG1 BCMAxCD3; HC1: CD3B2051-N106G LH scFv-Fc; also called BC3B122.001; B2051 LH NtoG
B8: BC3B123 (bispecific antibody, human IgG1, kappa, L234A L235A)
chain: B4 chain with W46L, R164K, A187N
heavy: not shown
light: B1 light
notes: IgG1 BCMAxCD3; HC1: CD3B2051-N106Q LH scFv-Fc; also called BC3B123.001; B2051 LH NtoQ
B9: BC3B109 (bispecific antibody, human IgG1, kappa, L234A L235A)
chain: B1 chain with I48M, W187L
heavy: not shown
light: B1 light
notes: IgG1 BCMAxCD3; HC1: CD3B2051-N106Q HL scFv-Fc; also called BC3B109.001; B2051 HL NtoQ
B10: BC3B126 (bispecific antibody, human IgG1, kappa, L234A L235A)
chain: B4 chain with Q232A
heavy: not shown
light: B1 light
notes: IgG1 BCMAxCD3; HC1: CD3B2089-N106A LH scFv-Fc; also called BC3B126.001; B2089 LH NtoA
B11: BC3B117 (bispecific antibody, human IgG1, kappa, L234A L235A)
chain: B4 chain with R164K, M174I, A187N, Q232A
heavy: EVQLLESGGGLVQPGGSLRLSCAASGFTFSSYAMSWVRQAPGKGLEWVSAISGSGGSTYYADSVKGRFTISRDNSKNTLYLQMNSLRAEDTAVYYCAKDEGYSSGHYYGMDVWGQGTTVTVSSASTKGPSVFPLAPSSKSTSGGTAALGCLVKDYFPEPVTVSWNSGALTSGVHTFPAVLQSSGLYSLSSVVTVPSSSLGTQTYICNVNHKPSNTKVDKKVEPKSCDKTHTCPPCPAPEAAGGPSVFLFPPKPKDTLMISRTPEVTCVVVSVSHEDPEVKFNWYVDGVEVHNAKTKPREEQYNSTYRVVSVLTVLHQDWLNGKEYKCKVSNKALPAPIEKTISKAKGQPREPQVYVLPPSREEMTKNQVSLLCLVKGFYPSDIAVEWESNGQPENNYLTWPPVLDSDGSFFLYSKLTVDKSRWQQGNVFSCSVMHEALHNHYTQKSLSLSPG
light: B1 light
notes: IgG1 BCMAxCD3; HC1: CD3B2030-N106A LH scFv-Fc; also called BC3B117.001; B2030 LH NtoA
B12: BC3B53 (bispecific antibody, human IgG1, kappa, L234A L235A)
chain: B4 chain with R164K, M174I, A187N
heavy: not shown
light: B1 light
notes: IgG1 BCMAxCD3; HC1: CD3B2030-N106Q LH scFv-Fc; also called BC3B53.001; B2030 LH NtoQ
B13: BC3B107 (bispecific antibody, human IgG1, kappa, L234A L235A)
chain: B1 chain with I48M, Q106A, W187L
heavy: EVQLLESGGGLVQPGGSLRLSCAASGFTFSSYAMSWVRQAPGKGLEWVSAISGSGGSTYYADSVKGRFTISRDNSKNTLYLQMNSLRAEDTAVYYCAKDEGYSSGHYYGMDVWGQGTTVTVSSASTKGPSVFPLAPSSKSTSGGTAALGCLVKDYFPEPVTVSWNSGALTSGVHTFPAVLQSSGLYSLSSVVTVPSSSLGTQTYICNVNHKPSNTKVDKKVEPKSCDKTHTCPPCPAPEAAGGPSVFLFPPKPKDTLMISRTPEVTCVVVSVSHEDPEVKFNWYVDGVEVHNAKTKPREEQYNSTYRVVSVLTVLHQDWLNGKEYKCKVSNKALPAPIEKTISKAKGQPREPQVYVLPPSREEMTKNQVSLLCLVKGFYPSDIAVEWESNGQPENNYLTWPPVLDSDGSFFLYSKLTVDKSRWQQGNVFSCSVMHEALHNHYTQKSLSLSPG
light: B1 light
notes: IgG1 BCMAxCD3; HC1: CD3B2051-N106A HL scFv-Fc; also called BC3B107.001; B2051 HL NtoA
B14: BC3B105 (bispecific antibody, human IgG1, kappa, L234A L235A)
chain: B1 chain with Q106S
heavy: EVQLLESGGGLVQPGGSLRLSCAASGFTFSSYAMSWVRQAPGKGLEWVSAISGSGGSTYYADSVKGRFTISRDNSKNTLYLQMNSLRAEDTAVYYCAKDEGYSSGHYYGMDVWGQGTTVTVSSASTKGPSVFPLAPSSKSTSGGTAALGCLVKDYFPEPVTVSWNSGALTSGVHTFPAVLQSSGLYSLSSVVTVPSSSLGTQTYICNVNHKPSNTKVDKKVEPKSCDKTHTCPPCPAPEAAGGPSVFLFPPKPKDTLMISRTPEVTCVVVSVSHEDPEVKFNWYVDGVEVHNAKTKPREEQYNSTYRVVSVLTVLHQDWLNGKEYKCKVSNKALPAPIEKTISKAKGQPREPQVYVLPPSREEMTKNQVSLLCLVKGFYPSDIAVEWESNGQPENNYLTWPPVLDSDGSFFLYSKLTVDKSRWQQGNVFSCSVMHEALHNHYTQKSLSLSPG
light: B1 light
notes: IgG1 BCMAxCD3; HC1: CD3B2030-N106S HL scFv-Fc; also called BC3B105.001; B2030 HL NtoS
B15: BC3B119 (bispecific antibody, human IgG1, kappa, L234A L235A)
chain: B4 chain with R164K, M174I, A187N, Q232S
heavy: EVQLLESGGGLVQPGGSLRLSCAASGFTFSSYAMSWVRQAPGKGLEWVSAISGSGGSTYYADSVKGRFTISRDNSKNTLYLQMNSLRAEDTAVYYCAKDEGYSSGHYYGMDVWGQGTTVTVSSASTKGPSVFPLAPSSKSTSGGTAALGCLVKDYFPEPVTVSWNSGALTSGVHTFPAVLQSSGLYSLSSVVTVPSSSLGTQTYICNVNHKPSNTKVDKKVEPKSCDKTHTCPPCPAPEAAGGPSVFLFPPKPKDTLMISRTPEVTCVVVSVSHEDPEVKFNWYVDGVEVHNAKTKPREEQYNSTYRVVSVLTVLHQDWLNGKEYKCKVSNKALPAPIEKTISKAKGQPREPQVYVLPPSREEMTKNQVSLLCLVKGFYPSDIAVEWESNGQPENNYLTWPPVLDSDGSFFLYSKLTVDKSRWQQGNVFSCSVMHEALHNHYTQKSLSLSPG
light: B1 light
notes: IgG1 BCMAxCD3; HC1: CD3B2030-N106S LH scFv-Fc; also called BC3B119.001; B2030 LH NtoS
B16: BC3B113 (bispecific antibody, human IgG1, kappa, L234A L235A)
chain: B1 chain with K38R, I48M, N61A, Q106G
heavy: not shown
light: B1 light
notes: IgG1 BCMAxCD3; HC1: CD3B2089-N106G HL scFv-Fc; also called BC3B113.001; B2089 HL NtoG
B17: BC3B121 (bispecific antibody, human IgG1, kappa, L234A L235A)
chain: B4 chain with W46L, R164K, A187N, Q232A
heavy: not shown
light: B1 light
notes: IgG1 BCMAxCD3; HC1: CD3B2051-N106A LH scFv-Fc; also called BC3B121.001; B2051 LH NtoA
B18: BC3B108 (bispecific antibody, human IgG1, kappa, L234A L235A)
chain: B1 chain with I48M, Q106G, W187L
heavy: not shown
light: B1 light
notes: IgG1 BCMAxCD3; HC1: CD3B2051-N106G HL scFv-Fc; also called BC3B108.001; B2051 HL NtoG
B19: BC3B118 (bispecific antibody, human IgG1, kappa, L234A L235A)
chain: B4 chain with R164K, M174I, A187N, Q232G
heavy: not shown
light: B1 light
notes: IgG1 BCMAxCD3; HC1: CD3B2030-N106G LH scFv-Fc; also called BC3B118.001; B2030 LH NtoG
B20: BC3B127 (bispecific antibody, human IgG1, kappa, L234A L235A)
chain: B4 chain with Q232G
heavy: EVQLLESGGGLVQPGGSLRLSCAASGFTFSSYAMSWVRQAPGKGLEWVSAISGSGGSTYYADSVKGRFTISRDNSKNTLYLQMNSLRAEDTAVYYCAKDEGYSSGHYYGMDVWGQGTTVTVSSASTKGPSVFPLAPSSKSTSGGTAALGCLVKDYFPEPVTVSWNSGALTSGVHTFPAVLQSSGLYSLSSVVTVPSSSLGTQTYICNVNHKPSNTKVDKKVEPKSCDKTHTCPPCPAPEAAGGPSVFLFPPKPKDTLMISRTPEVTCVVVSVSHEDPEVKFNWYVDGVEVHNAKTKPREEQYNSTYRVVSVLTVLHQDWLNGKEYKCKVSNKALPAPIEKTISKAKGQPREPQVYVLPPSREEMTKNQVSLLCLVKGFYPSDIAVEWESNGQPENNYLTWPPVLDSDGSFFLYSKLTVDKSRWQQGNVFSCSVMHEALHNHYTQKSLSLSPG
light: B1 light
notes: IgG1 BCMAxCD3; HC1: CD3B2089-N106G LH scFv-Fc; also called BC3B127.001; B2089 LH NtoG
B21: BC3B104 (bispecific antibody, human IgG1, kappa, L234A L235A)
chain: B1 chain with Q106G
heavy: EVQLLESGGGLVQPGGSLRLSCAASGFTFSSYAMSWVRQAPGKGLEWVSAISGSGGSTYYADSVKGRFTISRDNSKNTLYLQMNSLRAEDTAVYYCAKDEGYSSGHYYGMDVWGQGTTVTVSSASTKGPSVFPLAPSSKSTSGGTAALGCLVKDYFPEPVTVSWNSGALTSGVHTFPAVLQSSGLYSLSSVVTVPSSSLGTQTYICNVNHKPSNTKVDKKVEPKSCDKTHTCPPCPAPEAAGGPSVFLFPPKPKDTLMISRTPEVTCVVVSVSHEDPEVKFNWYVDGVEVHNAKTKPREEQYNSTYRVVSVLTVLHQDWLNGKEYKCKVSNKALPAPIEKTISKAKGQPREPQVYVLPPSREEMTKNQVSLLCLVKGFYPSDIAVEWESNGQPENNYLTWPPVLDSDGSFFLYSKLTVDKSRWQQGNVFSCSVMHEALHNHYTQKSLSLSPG
light: B1 light
notes: IgG1 BCMAxCD3; HC1: CD3B2030-N106G HL scFv-Fc; also called BC3B104.001; B2030 HL NtoG

Target: T1, Human CD3 epsilon (CD3ε), on primary human pan T cells (human, UniProt P07766 23-207)
Assay: cell-based or functional assay

Row | Binder | H929 Killing EC50 [pM]
1 | B1 | 12.9
2 | B2 | 155
3 | B3 | 780
4 | B4 | 35.4
5 | B5 | 92.1
6 | B6 | 12.6
7 | B7 | 4360
8 | B8 | 69
9 | B9 | 42.6
10 | B10 | 182
11 | B11 | 149
12 | B12 | 27.8
13 | B13 | 41.5
14 | B14 | 172
15 | B15 | 10000
16 | B16 | 44.3
17 | B17 | 100
18 | B18 | 85.3
19 | B19 | 745
20 | B20 | 806
21 | B21 | 237

Target: T1, Human CD3 epsilon (CD3ε), on primary …
Assay: cell-based or functional assay
Remark: another data set of the same source

Row | Binder | EC50, Cytotoxicity [pM]
22 | B1 | 27.8
23 | B2 | 155
24 | B3 | 781
25 | B4 | 35.4
26 | B5 | 92.1
27 | B6 | 12.5
28 | B7 | 4360
29 | B8 | 69
30 | B9 | 42.6
31 | B10 | 182
32 | B11 | 149
33 | B12 | 27.8
34 | B13 | 41.5
35 | B14 | 172
36 | B15 | 10000
37 | B16 | 44.3
38 | B17 | 100
39 | B18 | 85.3
40 | B19 | 745
41 | B20 | 806
42 | B21 | 237

Target: T1, Human CD3 epsilon (CD3ε), on primary …
Assay: flow cytometry on human T cells, anti-human IgG Fc A647 detection
Procedure: The bsAbs were assayed for their abilities bind T cells and to induce T-cell mediated cytotoxicity against H929 cells (ATCC@CRL-9068™). […] Stain buffer with no antibody was added to bottom 4 wells and assign as background control (secondary antibody alone). Parental Cris7b, CD3B695 (bivalent mAb controls) and CD3B375 (bsAb which was monovalent for Cris-7b) were added also with full dose-response curves.
Frozen T-cells were thawed in a 37° C. water bath and transferred gently into conical tube containing warm 5 mL media (RPMI+10% FBS)/1 vial of 1×10⁶ cells. Cells were mixed and centrifuged for 5 minutes at 400×g followed by resuspension in flow staining buffer, and counted and viability checked. Cells were then plated in 50 uL/50,000 cells/well into assay plates. Assay positive control mAb was added in the first column in quadruplicates at 2× at 20 nM in the bottom 4 wells. Stain buffer with no mAb was added to the top 4 wells and assigned as background controls (secondary antibody alone). Serially diluted antibody samples were added at 50 uL/well using Intergra Viaflo according to the attached plate maps and incubated for 1 hr at 37° C. After one hour incubation, 150 uL staining buffer were added to all wells, and cells were spun at 500×g for 5 minutes to pellet cells. Cells were then washed prior to addition of Alexa Fluor 647 (A647) conjugated anti human IgG Fc specific secondary detection antibody at 2 ug/mL in staining buffer. Secondary detection antibody was added at 50 uL/well to the washed cells. Plates were covered with foil and incubated for 30 minutes on ice or in the fridge. 150 uL staining buffer were added to all wells, and cells were spun at 500×g for 5 min to pellet cells. Cells were resuspended in 20 uL running buffer containing 1:1000 dilution of SYTOX™ green dead cell stain and run plates on iQue® Screener flow cytometer (Essen BioScience, Inc.). Briefly, cells were gated on FCS vs. SCS dot plot to eliminate debris. Singlets were gated on SCS-A vs SCS-H dot plot and from singlet population, live cells gated choosing BL1 channel for low/negative with SYTOX™ green viability stain (Thermo Fisher).

Row | Binder | EC50 [nM]
43 | B1 | 1.9
44 | B2 | 24
45 | B3 | 31.2
46 | B4 | 42.9
47 | B5 | 4.6
48 | B6 | 3.2
49 | B7 | 300
50 | B8 | 65
51 | B9 | 13.8
52 | B10 | 177
53 | B11 | 60.9
54 | B12 | 19.6
55 | B13 | 8.6
56 | B14 | 20.7
57 | B15 | 300
58 | B16 | 11.1
59 | B17 | 73.3
60 | B18 | 11
61 | B19 | 257
62 | B20 | 300
63 | B21 | 64.2
